Measurements as given in publication PMC9475207, “Neural crest cell-placodal neuron interactions are mediated by Cadherin-7 and N-cadherin during early chick trigeminal ganglion assembly” (F1000Research, 2022).

T1: N-cadherin GFP11 (chick, UniProt P10288 165-912)
T1 construct: Synthesized by GenScript; also called N-cad GFP11; N-cad GFP 11; source: CHO cells, transfected, in cells; chick embryo, electroporated in ovo into trigeminal placode cells; not shown: split GFP subunit 11 (GFP11), N-terminal, kept
T1 sequence (looked up): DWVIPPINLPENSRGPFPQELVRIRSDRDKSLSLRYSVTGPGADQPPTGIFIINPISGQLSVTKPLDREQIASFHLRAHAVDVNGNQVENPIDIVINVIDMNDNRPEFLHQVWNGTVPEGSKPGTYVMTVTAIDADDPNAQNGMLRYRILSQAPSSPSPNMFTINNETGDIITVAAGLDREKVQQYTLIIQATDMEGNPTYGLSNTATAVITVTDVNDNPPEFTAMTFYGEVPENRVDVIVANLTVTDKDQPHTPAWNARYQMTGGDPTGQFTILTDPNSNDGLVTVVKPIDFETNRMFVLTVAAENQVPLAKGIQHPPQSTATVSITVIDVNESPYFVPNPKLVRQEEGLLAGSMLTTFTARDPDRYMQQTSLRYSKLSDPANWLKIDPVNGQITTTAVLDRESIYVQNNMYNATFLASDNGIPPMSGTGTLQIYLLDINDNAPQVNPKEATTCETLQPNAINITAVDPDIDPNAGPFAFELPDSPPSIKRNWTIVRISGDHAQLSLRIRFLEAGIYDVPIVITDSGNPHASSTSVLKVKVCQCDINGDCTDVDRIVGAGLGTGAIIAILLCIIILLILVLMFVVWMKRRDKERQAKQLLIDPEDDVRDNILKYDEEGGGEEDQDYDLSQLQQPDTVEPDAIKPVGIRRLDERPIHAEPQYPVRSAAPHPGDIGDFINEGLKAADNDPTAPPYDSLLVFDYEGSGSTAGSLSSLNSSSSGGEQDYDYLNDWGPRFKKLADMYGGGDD

B1: Cadherin-7 GFP1-10 (natural protein, chick, UniProt Q90763 48-785, looked up)
chain: SWVWNQFFVLEEYMGSDPLYVGKLHSDVDKGDGSIKYILSGEGASSIFIIDENTGDIHATKRLDREEQAYYTLRAQAHDRLTNKPVEPESEFVIKIQDINDNEPKFLDGPYTAGVPEMSPVGTSVVQVTATDADDPTYGNSARVVYSILQGQPYFSVEPKTGIIKTALPNMDREAKDQYLLVIQAKDMVGQNGGLSGTTSVTVTLTDVNDNPPRFPRRSYQYNVPESLPLASVVARIKAADADVGPNAEMEYKIVDGDGLGVFKISVDKDTQEGIITIQKELDFEAKTSYTLRIEAANMHVDPRFLSLGPFSDMTTVKIIVEDVDEPPVFTSRLYSMVVSEAAKVGTIIGTVAAHDPDASNSPVRYSIDRNTDLERYFNIDANSGVITTAKSLDRETNAVHNITVLAMESQNPAQIGRGYVAITILDINDNAPEFAMEYETTVCENAQPGQIIQKISAIDKDDPPNGHQFYFSLTAEAANNHNFTLQDNKDNTATVLTRRNGFRRQEQSVFYLPIFIVDSGSPSLSSTNTLTIRVCDCDADGIAQTCNAEAYILPAGLSTGALIAILACVLTLLVLVLLIVTMRRRKKEPLIFDEERDIRENIVRYDDEGGGEEDTEAFDMAALRNLNIIRDTKTRRDVTPEIQFLSRPTFKSIPDNVIFREFIWERLKEADVDPCAPPYDSLQTYAFEGNGSVAESLSSLDSISSNSDQNYDYLSDWGPRFKRLADMYGSGPDCLYS
notes: Synthesized by GenScript; also called Cad7 GFP1-10; source: CHO cells, transfected, in cells; chick embryo, electroporated in ovo into premigratory neural crest cells; not shown: split GFP subunits 1-10 (GFP1-10), N-terminal, kept
B2: Cadherin-7 GFP11 (natural protein, chick, UniProt Q90763 48-785, looked up)
chain: B1 chain
notes: Synthesized by GenScript; also called Cad7 GFP11; Cad711; source: CHO cells, transfected, in cells; chick embryo, electroporated in ovo into premigratory neural crest cells; not shown: split GFP subunit 11 (GFP11), N-terminal, kept
B3: N-cadherin GFP1-10 (natural protein, chick, UniProt P10288 165-912, looked up)
chain: T1 sequence (looked up)
notes: Synthesized by GenScript; also called N-cad GFP1-10; N-cad GFP 1-10; source: CHO cells, transfected, in cells; chick embryo, electroporated in ovo into trigeminal placode cells; not shown: split GFP subunits 1-10 (GFP1-10), N-terminal, kept

Columns and labels:
Experiment in all cases: split reporter (BiFC, NanoBiT); GRASP (split GFP1-10 / GFP11 on the cadherin extracellular domain); both constructs co-transfected into CHO cells (in cis); GFP fluorescence by confocal imaging, GFP+ cells/DAPI+ cells
Settings in all cases: partners not purified
Cadherin-7 GFP11 = target: B2
N-cadherin GFP11 = target: T1, N-cadherin GFP11
N-cadherin GFP1-10 = target: B3

percent GFP-positive cells (GFP+ cells/DAPI+ cells) (Cadherin-7 GFP11) | percent GFP-positive cells (GFP+ cells/DAPI+ cells) (N-cadherin GFP11) | percent GFP-positive cells (GFP+ cells/DAPI+ cells) (N-cadherin GFP1-10) | Binder
10.5% | 8.9% | – | B1
– | – | 5.76% | B2
– | 13.2% | – | B3
